The text below walks through data of paper PMC6637149, “Cryo-EM and directed evolution reveal how Arabidopsis nitrilase specificity is influenced by its quaternary structure” (Communications Biology, 2019).

Data set [1] deals with the molecule itself. Description: cryo-EM structure; purified AtNIT4 filaments (~0.15 mg/ml) in 50 mM Tris-HCl pH 8.0, 100 mM NaCl, blotted at ~10% humidity, 25 °C; helical reconstruction, one helical turn treated as a single particle.
Data set [2] deals with the molecule itself. Kind of data set: negative-stain electron microscopy with 3D helical reconstruction; purified NIT filaments on carbon-coated copper grids, 2% uranyl acetate; iterative helical real-space reconstruction.

B1: Arabidopsis thaliana nitrilase 4 (AtNIT4), wild type (enzyme, UniProt P46011 1-355, looked up)
chain: MSMQQETSHMTAAPQTNGHQIFPEIDMSAGDSSSIVRATVVQASTVFYDTPATLDKAERLLSEAAENGSQLVVFPEAFIGGYPRGSTFELAIGSRTAKGRDDFRKYHASAIDVPGPEVERLALMAKKYKVYLVMGVIEREGYTLYCTVLFFDSQGLFLGKHRKLMPTALERCIWGFGDGSTIPVFDTPIGKIGAAICWENRMPSLRTAMYAKGIEIYCAPTADSRETWLASMTHIALEGGCFVLSANQFCRRKDYPSPPEYMFSGSEESLTPDSVVCAGGSSIISPLGIVLAGPNYRGEALITADLDLGDIARAKFDFDVVGHYSRPEVFSLNIREHPRKAVSFKTSKVMEDESV
notes: Nitrilase 4 of Arabidopsis thaliana, NP_197622.1, AT5G22300; 355 residues in all, 289 built in the model; Forms open-ended left-handed helical filaments built of dimers, so no fixed number of copies. pET-21b(+) usually adds a C-terminal His6 tag (surmised); also called AtNIT4 wt; source: E. coli BL21-CodonPlus (DE3)-RIL, pET-21b(+), purified (Ni-NTA, SEC)
For the protein B1, in data set [1], the binding result was “binds”.

B2: AtNIT4 R95T (enzyme, Arabidopsis thaliana, UniProt P46011 1-355, looked up)
chain: MSMQQETSHMTAAPQTNGHQIFPEIDMSAGDSSSIVRATVVQASTVFYDTPATLDKAERLLSEAAENGSQLVVFPEAFIGGYPRGSTFELAIGSTTAKGRDDFRKYHASAIDVPGPEVERLALMAKKYKVYLVMGVIEREGYTLYCTVLFFDSQGLFLGKHRKLMPTALERCIWGFGDGSTIPVFDTPIGKIGAAICWENRMPSLRTAMYAKGIEIYCAPTADSRETWLASMTHIALEGGCFVLSANQFCRRKDYPSPPEYMFSGSEESLTPDSVVCAGGSSIISPLGIVLAGPNYRGEALITADLDLGDIARAKFDFDVVGHYSRPEVFSLNIREHPRKAVSFKTSKVMEDESV
notes: Nitrilase 4 of Arabidopsis thaliana, NP_197622.1, with the substitution R95T; Full length is inferred from the parent construct; source: E. coli BL21-CodonPlus (DE3)-RIL, pET-21b(+), purified (Ni-NTA, SEC)
Take B2: the binding result in data set [2] was “binds”.

B3: AtNIT4 R95T L169A S224Q (enzyme, Arabidopsis thaliana, UniProt P46011 1-355, looked up)
chain: MSMQQETSHMTAAPQTNGHQIFPEIDMSAGDSSSIVRATVVQASTVFYDTPATLDKAERLLSEAAENGSQLVVFPEAFIGGYPRGSTFELAIGSTTAKGRDDFRKYHASAIDVPGPEVERLALMAKKYKVYLVMGVIEREGYTLYCTVLFFDSQGLFLGKHRKLMPTAAERCIWGFGDGSTIPVFDTPIGKIGAAICWENRMPSLRTAMYAKGIEIYCAPTADQRETWLASMTHIALEGGCFVLSANQFCRRKDYPSPPEYMFSGSEESLTPDSVVCAGGSSIISPLGIVLAGPNYRGEALITADLDLGDIARAKFDFDVVGHYSRPEVFSLNIREHPRKAVSFKTSKVMEDESV
notes: Nitrilase 4 of Arabidopsis thaliana, NP_197622.1, with three substitutions selected from a site-saturation library made in the vector of the wild type; Selected by directed evolution from the AtNIT4 pET-21b(+) vector; full length is inferred from the parent construct; also called the mutant; NIT4 mutant; source: E. coli BL21-CodonPlus (DE3)-RIL, pET-21b(+), purified (Ni-NTA, SEC)
Consider B3, for which the binding result in data set [2] is on record as “binds”.
